Experiments:
human IL-34 [1] = biological target: T1, human IL-34 (human, UniProt Q6ZMJ4 21-242, Biotinylated in the CSF1R displacement ELISA (sites not given); secreted homodimer, one monomer chain given.); assay: cell-based or functional assay
T1 sequence: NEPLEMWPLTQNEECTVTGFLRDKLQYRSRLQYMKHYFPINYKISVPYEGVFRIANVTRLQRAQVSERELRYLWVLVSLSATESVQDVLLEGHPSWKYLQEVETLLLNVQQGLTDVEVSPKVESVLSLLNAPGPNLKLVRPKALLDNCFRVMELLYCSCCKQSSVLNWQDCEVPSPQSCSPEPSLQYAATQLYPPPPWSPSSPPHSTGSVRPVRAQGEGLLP

cynomolgus monkey IL-34 [2] = biological target: T2, cynomolgus monkey IL-34 (cynomolgus monkey, UniProt G7Q1L3 21-242); assay: SPR, BIAcore 8K, 37 C, antibody captured on Protein A chip, IL-34 flowed; mean of at least three experiments (SD 16.2 in r12c6)
T2 construct: Biotinylated in the CSF1R displacement ELISA; also called cyno IL-34
T2 sequence: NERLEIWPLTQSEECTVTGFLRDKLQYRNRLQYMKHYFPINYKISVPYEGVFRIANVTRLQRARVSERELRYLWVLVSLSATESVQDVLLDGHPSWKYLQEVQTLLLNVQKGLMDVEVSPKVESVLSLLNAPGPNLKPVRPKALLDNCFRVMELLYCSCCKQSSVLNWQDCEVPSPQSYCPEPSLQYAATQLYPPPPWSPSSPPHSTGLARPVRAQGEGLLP
Description: (§1) Binding affinity of anti-IL-34 monoclonal antibodies of the present disclosure to human and/or cynomolgus monkey (cyno) IL-34 may be determined by methods known in the art. Briefly, the binding affinity and kinetics of the antibody are evaluated by surface plasmon resonance using BIAcore™ 8K (Cytiva) at 37° C. […] For each cycle, 200 μL IL-34 is flowed over the immobilized antibody at 100 μL/minute, and then dissociated for 20 minutes. The chip surface is regenerated with 50 μL of glycine buffer at pH 1.5 at a flow rate of 100 μL/minute. The data are fit to a 1:1 Langmiur binding mode to derive kon, koff and to calculate KD.

human IL-34 [3] = biological target: T1, human IL-34; assay: SPR, BIAcore 8K, 37 C, antibody captured on Protein A chip, IL-34 flowed; mean of at least three experiments (SD 4.4E+05 in r10c4)
Description: as §1

human IL-34 [4] = biological target: T1, human IL-34; assay: SPR, BIAcore 8K, 37 C, antibody captured on Protein A chip, IL-34 flowed; mean of at least three experiments (SD 4.8 in r10c6)
Description: as §1

human IL-34 [5] = biological target: T1, human IL-34; assay: competition ELISA: displacement of biotinylated human IL-34 (3.7 nM) from plate-bound hCSF1R_Fc
Description: (§2) CSF1R extracellular domain proteins (hCSFIR_Fc commercially available from R&D Cat #329-MR, cynomolgus CSFIR ECD-Fc (AAA is a linker between CSF1R extracellular domain and Fc) (SEQ ID NO: 53)) can be bound to an ELISA plate at concentrations of 30 nM in order to capture soluble biotinylated IL-34 and allowed to bind for one hour. After washing and blocking plate, biotinylated IL-34 may be added, then detected via streptavidin conjugated peroxidase. Concentrations of labeled IL-34 near the 80% binding level (EC₈₀) (3.7 nM) may be used in conjunction with a range of antibody concentrations (0-100 nM) to determine concentration of antibody required to displace IL-34 from CSF1R. After 1 hr incubation, IL-34 bound to CSFIR is detected via streptavidin conjugated peroxidase. The antibodies are assayed (n=2) and the average and standard deviation at each concentration are calculated. The potency of an antibody to displace IL-34 from CSFIR is reported as IC₅₀ (nM) with the calculated confidence interval (CI) in Table 4 and Table 5.

cynomolgus monkey IL-34 [6] = biological target: T2, cynomolgus monkey IL-34; assay: competition ELISA: displacement of biotinylated cyno IL-34 from plate-bound cynomolgus CSF1R ECD-Fc
Description: as §2

cynomolgus monkey IL-34 [7] = biological target: T2, cynomolgus monkey IL-34; assay: SPR, BIAcore 8K, 37 C, antibody captured on Protein A chip, IL-34 flowed; mean of at least three experiments (SD 2.0E+06 in r12c4)
Description: as §1

cynomolgus monkey IL-34 [8] = biological target: T2, cynomolgus monkey IL-34; assay: SPR, BIAcore 8K, 37 C, antibody captured on Protein A chip, IL-34 flowed; mean of at least three experiments (SD 5.3E-05 in r12c5)
Description: as §1

human IL-34 [9] = biological target: T1, human IL-34; assay: SPR, BIAcore 8K, 37 C, antibody captured on Protein A chip, IL-34 flowed; mean of at least three experiments (SD 2.9E-05 in r10c5)
Description: as §1

B1: Antibody 1 (antibody, human IgG4 S228P, kappa, F234A L235A, V domains shown)
VH: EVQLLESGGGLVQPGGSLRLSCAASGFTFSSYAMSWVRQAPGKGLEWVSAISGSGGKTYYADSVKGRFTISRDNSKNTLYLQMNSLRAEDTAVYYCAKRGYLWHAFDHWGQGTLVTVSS
VL: EIVLTQSPGTLSLSPGERATLSCRASQSVSSLYLAWYQQKPGQAPRLLIYGASSRATGIPDRFSGSGSGTDFTLTISRLEPEDFAVYYCQVVGSSPPFTFGGGTKVEIKR
notes: Fully human anti-IL-34 IgG4 (IgG4 PAA hinge/Fc, C-terminal lysine deleted), kappa light chain; also called Exemplified Antibody 1; exemplified antibody 1
IC50 (ug/ml), neutralization of human IL-34 induced luciferase reporter activity in hCSF1R expressing 293 SRE cells (human IL-34 [1]): 0.0458 µg/mL | Kd (cynomolgus monkey IL-34 [2]): 0.0409 nM | kon (human IL-34 [3]): 8.4e+06 M⁻¹ s⁻¹ | Kd (human IL-34 [4]): 0.0312 nM | IC50 (human IL-34 [5]): 0.154 nM | IC50 (cynomolgus monkey IL-34 [6]): 0.644 nM | kon (cynomolgus monkey IL-34 [7]): 7.9e+06 M⁻¹ s⁻¹ | koff (cynomolgus monkey IL-34 [8]): 0.0003 s⁻¹ | koff (human IL-34 [9]): 0.00026 s⁻¹

Reference: US20250296997A1 (Eli Lilly, published 2025)
